Source: US20040170955A1 (University of Texas, published 2004)
Ends that are not written are not given here.

Columns and labels:
[1] = target: T1, Aminopeptidase A (APA, EC 3.4.11.7) on SK-RC-49/APA cells (UniProt Q07075 1-957, limits assumed); test: phage binding to SK-RC-49/APA cells against SK-RC-49 parental cells
T1 construct: whole, on cells

[2] = target: T2, GST-β5cyto (GST fusion protein of the β5 integrin cytoplasmic domain) (UniProt P18084 743-799); test: phage binding, colonies from β5-GST wells / GST wells
T2 construct: domain: cytoplasmic domain; Recombinant GST fusion coated on microtiter wells; also called β5-GST; β5 cytoplasmic domain fusion protein; not shown: glutathione S-transferase (GST) fusion partner
T2 sequence (looked up): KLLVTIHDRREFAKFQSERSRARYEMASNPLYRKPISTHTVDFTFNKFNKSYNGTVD
From the text: (§1) β3 and β5 cytoplasmic domain-binding peptides were isolated by screening multiple phage libraries with recombinant GST fusion proteins that contained either GST-β3cyto or GST-β5cyto coated onto microtiter wells. Immobilized GST was used as a negative control for enrichment during the panning of each cytoplasmic domain. Phage were sequenced from randomly selected clones after three rounds of panning as disclosed elsewhere (Koivunen et al., 1995; Pasqualini et al., 1995). […] Randomly selected clones from panning rounds II and III were sequenced. Amino acid sequences of the phagemid encoded peptides were deduced from nucleotide sequences. The ratios were calculated by dividing the number of colonies recovered from β3-GST-coated wells and those recovered from GST or BSA.

[3] = target: T2, GST-β5cyto (GST fusion protein of the …); test: phage binding, colonies from β5-GST wells / BSA wells
From the text: as §1

[4] = target: T3, GST-β3cyto (GST fusion protein of the β3 integrin cytoplasmic domain) (UniProt P05106 742-788); test: phage binding, colonies from β3-GST wells / GST wells
T3 construct: domain: cytoplasmic domain; Recombinant GST fusion coated on microtiter wells; also called β3-GST; β3 cytoplasmic domain fusion protein; not shown: glutathione S-transferase (GST) fusion partner
From the text: as §1

[5] = target: T3, GST-β3cyto (GST fusion protein of the …); test: phage binding, colonies from β3-GST wells / BSA wells
From the text: as §1

[6] = target: GST-β5cyto (GST fusion protein of the β5 integrin cytoplasmic domain) (UniProt P18084); test: phosphorylated phage binding, β5 colonies / BSA colonies
[7] = target: GST-β5cyto (GST fusion protein of the β5 integrin cytoplasmic domain) (UniProt P18084); test: phage binding to β5, colonies with Fyn-phosphorylated phage / unphosphorylated phage
[8] = target: GST-β5cyto (GST fusion protein of the β5 integrin cytoplasmic domain) (UniProt P18084); test: phosphorylated phage binding, β5 colonies / GST colonies
[9] = target: GST-β3cyto (GST fusion protein of the β3 integrin cytoplasmic domain) (UniProt P05106); test: phage binding, colonies from β3-GST wells / BSA wells
[10] = target: GST-β3cyto (GST fusion protein of the β3 integrin cytoplasmic domain) (UniProt P05106); test: phage binding, colonies from β3-GST wells / GST wells
[11] = target: GST-β5cyto (GST fusion protein of the β5 integrin cytoplasmic domain) (UniProt P18084); test: phage binding, colonies from β5-GST wells / GST wells
[12] = target: GST-β5cyto (GST fusion protein of the β5 integrin cytoplasmic domain) (UniProt P18084); test: phage binding, colonies from β5-GST wells / BSA wells
[13] = target: T1, Aminopeptidase A (APA, EC 3.4.11.7) on …; test: phage binding to SK-RC-49/APA cells against parental cells (not shown)
[14] = target: GST-β3cyto (GST fusion protein of the β3 integrin cytoplasmic domain) (UniProt P05106); test: phosphorylated phage binding, β3 colonies / BSA colonies
[15] = target: GST-β3cyto (GST fusion protein of the β3 integrin cytoplasmic domain) (UniProt P05106); test: phage binding to β3, colonies with Fyn-phosphorylated phage / unphosphorylated phage
[16] = target: GST-β3cyto (GST fusion protein of the β3 integrin cytoplasmic domain) (UniProt P05106); test: phosphorylated phage binding, β3 colonies / GST colonies
[17] = target: T1, Aminopeptidase A (APA, EC 3.4.11.7) on …; test: cell-based or functional assay

Sequence of GST-β3cyto (GST fusion protein of the β3 integrin cytoplasmic domain) (UniProt P05106) (P05106 742-788): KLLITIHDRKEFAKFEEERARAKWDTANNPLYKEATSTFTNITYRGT
T3 sequence (P05106 742-788): as above
T1 sequence (Q07075 whole entry): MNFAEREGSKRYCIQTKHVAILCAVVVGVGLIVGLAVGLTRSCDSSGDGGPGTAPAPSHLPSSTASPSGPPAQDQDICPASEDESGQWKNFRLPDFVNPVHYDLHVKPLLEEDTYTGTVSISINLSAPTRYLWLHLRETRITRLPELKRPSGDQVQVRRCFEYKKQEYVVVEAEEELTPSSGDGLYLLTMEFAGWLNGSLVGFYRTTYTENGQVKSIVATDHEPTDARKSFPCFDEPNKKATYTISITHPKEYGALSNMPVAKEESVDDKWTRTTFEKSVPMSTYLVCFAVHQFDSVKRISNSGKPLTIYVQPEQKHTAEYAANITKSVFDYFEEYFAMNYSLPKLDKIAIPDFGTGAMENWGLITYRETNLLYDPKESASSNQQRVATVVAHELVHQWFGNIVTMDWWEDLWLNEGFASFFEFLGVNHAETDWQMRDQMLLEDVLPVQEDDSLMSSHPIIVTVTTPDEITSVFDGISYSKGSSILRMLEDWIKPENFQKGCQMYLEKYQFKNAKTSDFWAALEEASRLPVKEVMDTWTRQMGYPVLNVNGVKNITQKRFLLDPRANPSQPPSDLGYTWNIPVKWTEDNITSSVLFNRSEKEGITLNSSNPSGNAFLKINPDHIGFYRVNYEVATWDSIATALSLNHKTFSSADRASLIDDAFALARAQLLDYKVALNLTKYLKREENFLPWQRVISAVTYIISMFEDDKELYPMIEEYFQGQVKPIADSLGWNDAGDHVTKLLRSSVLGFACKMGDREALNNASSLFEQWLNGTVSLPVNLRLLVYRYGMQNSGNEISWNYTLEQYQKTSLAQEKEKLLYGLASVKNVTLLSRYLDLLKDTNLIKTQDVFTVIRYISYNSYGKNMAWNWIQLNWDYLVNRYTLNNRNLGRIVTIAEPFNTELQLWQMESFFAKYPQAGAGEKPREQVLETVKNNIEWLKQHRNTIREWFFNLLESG

B1: phage displaying CSMMCLEGCDDWC (SEQ ID NO:131) (peptide)
peptide: CSMMCLEGCDDWC
notes: one of the other phage selected in round 2
[1]
  binding result: no binding

## VVISYSMPD (whole phage tested) [phage displaying VVISYSMPD (SEQ ID NO:112)]
[2]
  β5/GST Ratio: 3.8 ratio
[3]
  β5/BSA Ratio: 28 ratio

## CARLEVLLPC (cysteine pairing not given here; also: displayed on phage, whole phage tested) [phage displaying CARLEVLLPC (SEQ ID NO:94)]
[4]
  β3/GST Ratio: 2.8 ratio
[5]
  β3/BSA Ratio: 18.7 ratio

## TMLRYTVRL (not fully specified (residue 5); also: displayed on phage) [Fyn-phosphorylated phage displaying … (SEQ ID NO:118)]
[6]
  β3 or β5/BSA: 2.2
[7]
  Phos/Unphos: 14.3
[8]
  β3 or β5/GST: 3.4

## AGWLYMSWK [phage displaying … (SEQ ID NO:101)]
[9]
  β3/BSA Ratio: 2.4
[10]
  β3/GST Ratio: 1.8

## CKLWQEDGY [phage displaying … (SEQ ID NO:108)]
[11]
  β5/GST Ratio: 1.8
[12]
  β5/BSA Ratio: 665

## SDNRYIGSW (whole phage tested) [phage displaying SDNRYIGSW (SEQ ID NO:97)]
[4]
  β3/GST Ratio: 3.3 ratio
[5]
  β3/BSA Ratio: 32 ratio

## GLDTYRGSP (whole phage tested) [phage displaying GLDTYRGSP (SEQ ID NO:96)]
[4]
  β3/GST Ratio: 4.1 ratio
[5]
  β3/BSA Ratio: 48 ratio

## CYIWPDSGLC (cysteine pairing not given here; also: displayed on phage, whole phage tested) [phage displaying CYIWPDSGLC (SEQ ID NO:105)]
[2]
  β5/GST Ratio: 5.2 ratio
[3]
  β5/BSA Ratio: 193 ratio

## TLRKYFHSS (not fully specified (residue 5); also: displayed on phage) [Fyn-phosphorylated phage displaying … (SEQ ID NO:120)]
[6]
  β3 or β5/BSA: 15.2
[7]
  Phos/Unphos: 3.8
[8]
  β3 or β5/GST: 3.8

## CEPYWDGWFC (cysteine pairing not given here; also: displayed on phage, whole phage tested) [phage displaying CEPYWDGWFC (SEQ ID NO:106)]
[2]
  β5/GST Ratio: 3.1 ratio
[3]
  β5/BSA Ratio: 400 ratio

## SDWYYPWSW (whole phage tested; Selected on β3) [phage displaying SDWYYPWSW (SEQ ID NO:100)]
[4]
  β3/GST Ratio: 2.1 ratio
[5]
  β3/BSA Ratio: 157 ratio

## TMLRYFMFP (not fully specified (residue 5); also: displayed on phage) [Fyn-phosphorylated phage displaying … (SEQ ID NO:119)]
[6]
  β3 or β5/BSA: 3.8
[7]
  Phos/Unphos: 4.2
[8]
  β3 or β5/GST: 2.3

B2: phage displaying CSGLCTVQCLEGC (SEQ ID NO:130) (peptide)
peptide: CSGLCTVQCLEGC
notes: as for B1
[1]
  binding result: no binding

## DEEGYYMMR (whole phage tested) [phage displaying DEEGYYMMR (SEQ ID NO:110)]
[2]
  β5/GST Ratio: 11.5 ratio
[3]
  β5/BSA Ratio: 29 ratio

## CLRQSYSYNC (cysteine pairing not given here; also: displayed on phage, whole phage tested) [phage displaying CLRQSYSYNC (SEQ ID NO:104)]
[4]
  β3/GST Ratio: 2.4 ratio
[5]
  β3/BSA Ratio: 3.2 ratio

## DWFSYYEL [phage displaying DWFSYYEL (SEQ ID NO:114)]
[11]
  β5/GST Ratio: 1.7
[12]
  β5/BSA Ratio: 153

## CFQNRC (cysteine pairing not given here; also: displayed on phage, whole phage tested) [phage displaying CFQNRC (SEQ ID NO:102)]
[4]
  β3/GST Ratio: 3.1 ratio
[5]
  β3/BSA Ratio: 16 ratio

B3: phage displaying CAVACWADCQLGC (SEQ ID NO:129) (peptide)
peptide: CAVACWADCQLGC
notes: as for B1
[1]
  binding result: no binding

## CEQRQTQEGC (cysteine pairing not given here; also: displayed on phage, whole phage tested) [phage displaying CEQRQTQEGC (SEQ ID NO:93)]
[4]
  β3/GST Ratio: 4.3 ratio
[5]
  β3/BSA Ratio: 14 ratio

## KQFSYRYLL (whole phage tested) [phage displaying KQFSYRYLL (SEQ ID NO:111)]
[2]
  β5/GST Ratio: 4.5 ratio
[3]
  β5/BSA Ratio: 8 ratio

## CLGQCASICVNDC (whole phage tested) [phage displaying CLGQCASICVNDC (SEQ ID NO:126)]
[13]
  fold enrichment relative to SK-RC-49 parental cells: 6 fold

## CPKVCPRECESNC (whole phage tested) [phage displaying CPKVCPRECESNC (SEQ ID NO:127)]
[13]
  fold enrichment relative to SK-RC-49 parental cells: 6 fold

## CKEDGWLMTC (whole phage tested) [phage displaying CKEDGWLMTC (SEQ ID NO:107)]
[2]
  β5/GST Ratio: 2.3 ratio
[3]
  β5/BSA Ratio: 836 ratio

B4: phage displaying CYNLCIRECESICGADGACWTWCADGCSRSC (SEQ ID NO:125) (peptide)
peptide: CYNLCIRECESICGADGACWTWCADGCSRSC
notes: whole phage tested; also called tandem phage
[13]
  fold enrichment relative to SK-RC-49 parental cells: 6 fold

## SDWYYPWSW (whole phage tested; Selected on β5) [phage displaying SDWYYPWSW (SEQ ID NO:113)]
[2]
  β5/GST Ratio: 2.4 ratio
[3]
  β5/BSA Ratio: 304 ratio

## MLLGYRFEK (not fully specified (residue 5); also: displayed on phage) [Fyn-phosphorylated phage displaying … (SEQ ID NO:117)]
[14]
  β3 or β5/BSA: 2.7
[15]
  Phos/Unphos: 2.5
[16]
  β3 or β5/GST: 3.5

B5: CPRECESIC (SEQ ID NO:123) soluble cyclic peptide (peptide)
peptide: CPRECESIC
modifications: disulfide (positions not given here); not fully specified; also: disulfide positions not determined, mixture of six MS species, possibly dimers
[17]
  IC50 for APA enzyme inhibition (α-glutamyl-p-nitroanilide, colorimetric, SK-RC49/APA cells): 800 µM

## CNLSSEQC (cysteine pairing not given here; also: displayed on phage, whole phage tested) [phage displaying CNLSSEQC (SEQ ID NO:103)]
[4]
  β3/GST Ratio: 2.7 ratio
[5]
  β3/BSA Ratio: 62 ratio

## GGGSYRHVE (not fully specified (residue 5); also: displayed on phage) [Fyn-phosphorylated phage displaying … (SEQ ID NO:115)]
[14]
  β3 or β5/BSA: 5.3
[15]
  Phos/Unphos: 13.2
[16]
  β3 or β5/GST: 1.5

## KVSWYLDNG (whole phage tested) [phage displaying KVSWYLDNG (SEQ ID NO:99)]
[4]
  β3/GST Ratio: 2.1 ratio
[5]
  β3/BSA Ratio: 20 ratio

## CWDQNYLDDC (whole phage tested) [phage displaying CWDQNYLDDC (SEQ ID NO:109)]
[2]
  β5/GST Ratio: 1.5 ratio
[3]
  β5/BSA Ratio: 100 ratio

## YDWWYPWSW (whole phage tested) [phage displaying YDWWYPWSW (SEQ ID NO:95)]
[4]
  β3/GST Ratio: 5.6 ratio
[5]
  β3/BSA Ratio: 163 ratio

## CGTGCAVECEVVC (whole phage tested) [phage displaying CGTGCAVECEVVC (SEQ ID NO:128)]
[1]
  binding result: no binding

## YEWWYWSWA (whole phage tested) [phage displaying YEWWYWSWA (SEQ ID NO:98)]
[4]
  β3/GST Ratio: 2.2 ratio
[5]
  β3/BSA Ratio: 28.1 ratio
